According to US20150335719A1, “Intravitreal Injection of a Chimeric Phage Endolysin Ply187; Protection from Staphylococcus aureus Endophthalmitis” (priority 2014, published 2015):

Key:
staphylococci = conditions: Mao et al.; cited from earlier work
[1] = test system: S. aureus R 3000 (HA-MRSA); experiment: MIC against S. aureus strains (Table 1); format: cell-based, Staphylococcus aureus; conditions: mean of three experiments ± SEM
Protocol: (§1) For in vivo studies, an antibiotic sensitive S. aureus (SA) strain RN6390 was used to induce endophthalmitis; whereas, the in vitro studies were performed using antibiotic-resistant strains (Table 1), including USA300, a community-associated methicillin resistant S. aureus (CA-MRSA), and three clinical isolates R2932 (CA-MRSA), R2952 and R3000 (both being hospital-associated MRSA, […]), […]) kindly provided by Dr. Michael J. Rybak (Department of Pharmaceutical Sciences, Wayne State University, Detroit, Mich.). All bacteria were routinely cultured in TSB broth (Tryptic Soy broth, Sigma, St Louis, Mo.) or on TSB agar plates.
(§2) To verify and quantify the lytic activity against live S. aureus, we have tested Ply187AN-KSH3b in the Turbidity Reduction Assay. The turbidity assay measures the drop in optical density (OD) resulting from lysis of the target bacteria with the phage endolysin-derived protein. Turbidity reduction assays by chimeric Ply187AN-KSH3b were performed in a 96 well plate as described previously by Becker et al. (2009a, 2009b, supra). Briefly, S. aureus strains/isolates RN6390, USA 300, and clinical isolates R2932, R2952 and R3000 were grown to logarithmic phase (OD600 0.4-0.6) at 37° C. in tryptic Soy broth (TSB). The culture was harvested by centrifugation and the pellet was resuspended in assay buffer (400 mM NaCl, 20 mM Tris HCl, 1% glycerol, pH 7.5). Bacterial cultures (100 μl/well) were mixed with 100 μl of (as per MIC) of chimeric Ply187AN-KSH3b protein diluted in the same assay buffer. The reduction in the turbidity was measured after every 5 min up to 1 h using a micro plate reader. EB diluted in the same assay buffer (without chimeric Ply187AN-KSH3b protein) was used as a control (EB C). Resistance development against chimeric Ply187AN-KSH3b was tested using repeated exposure in an MIC assay as described by Rodriguez-Rubio and co-workers (Rodriguez-Rubio et al., PLoS One 8:e64671.). In brief, bacterial cultures (10^5 CFU/well) were exposed overnight to a 2-fold serial dilution of chimeric Ply187AN-KSH3b, lysostaphin, and gentamicin, where the latter serve as controls. In every round, 100 μl culture from the wells with growth (½ MIC value) were inoculated into fresh TSB and grown up to logarithmic phase. These cultures were used for the next round of MIC exposure. Bacteria surviving after 10 rounds were grown for an additional 5 rounds in TSB without any selection pressure to allow phenotype-reversion, then MIC were performed to measure the sensitivity to the chimeric Ply187AN-KSH3b after non-selective growth.

[2] = test system: S. aureus USA 300 (CA-MRSA); experiment: MIC against S. aureus strains (Table 1); format: cell-based, Staphylococcus aureus; conditions: mean of three experiments ± SEM
Protocol: as §1, §2

[3] = test system: cultured microglia, Müller glia and RPE; experiment: Cytotoxicity analysis in vitro; format: cell-based; conditions: data not shown
[4] = test system: S. aureus (strain RN6390, USA 300, R 2932, R 2952, R 3000) biofilms; experiment: Biofilm disruption (Live/Dead BacLight staining and CFU count); format: cell-based, Staphylococcus aureus; conditions: 24 h biofilms treated for 30 min
Protocol: FIGS. 2A-2E depicts the biofilm disruption activity of chimeric Ply187AN-KSH3b. In FIG. 2A-2E, either chimeric Ply187AN-KSH3b or EB (EB C) or Gentamicin (for MDR/MRSA strains/isolates) was applied to cover slips containing S. aureus RN6390 (FIG. 2A), USA 300 (FIG. 2B), R 2932 (FIG. 2C), R 2952 (FIG. 2D) and R3000 (FIG. 2E) biofilms for 30 min. Bacterial killing was assessed via Live/Dead™ staining and subsequent fluorescence microscopy. FIG. 2F depicts the viability of biofilm associated bacteria enumerated by CFU count. Error bars represent the mean±SEM of two independent experiments performed in triplicate.
Biofilm disruption by the chimeric Ply187AN-KSH3b was observed using Live/Dead BacLight™ staining which takes advantage of SYTO™ 9, a green-fluorescent nucleic acid stain and propidium iodide that fluoresces red. SYTO™ 9 labels a bacterial population with an intact membrane and fluoresces green. In contrast, propidium iodide penetrates bacteria with damaged membranes and fluoresces red. Briefly, static biofilms of S. aureus (strain RN6390, USA 300, R 2932, R 2952, R 3000) were grown on glass cover slips in 6 well tissue culture plates in fresh TSB media seeded with S. aureus. After incubation at 37° C. for 24 h, the biofilms were treated for an additional 30 min with chimeric Ply187AN-KSH3b (as per MIC) diluted in EB or with EB/gentamicin alone. The biofilms were then stained with the Live/Dead BacLight™ bacterial viability kit (Invitrogen, Carlsbad, Calif.), per manufacturer's instruction. The cover slips were washed three times with PBS to remove excess stain and cell debris, mounted with mounting oil on a glass slide, and examined with an Eclipse 90i fluorescence microscope (Nikon, Melville, N.Y.).

S. aureus RN6390 = experiment: Mouse S. aureus endophthalmitis: bacterial burden in eyes (plate count); format: in vivo, C57BL/6 mice; conditions: 24 h after treatment
Excerpt: FIGS. 4 A, B and C depict the effect of chimeric Ply187AN-KSH3b on bacterial growth in vivo and in the vitreous humor (VH) in vitro and with increasing inoculums in vitro respectively. […] Twenty-four hours after the treatment, the eyes were enucleated, homogenized and the bacterial burden was estimated via serial dilution plating. FIG. 4B depicts a test showing the effect of the vitreous humor on Ply187AN-KSH3b antimicrobial activity where Ply187AN-KSH3b was mixed with calf vitreous humor and inoculated with 10^5 CFU of S. aureus. The survival of the bacteria was enumerated by CFU count at 2, 4 and 6 h of incubation. Statistical analysis was performed using unpaired student's t test (*, p<0.05; **, p<0.005; ***, p<0.0005). […] An increasing number of dilutions (1:10,000 to 1:10) of logarithmic phase of S. aureus (RN6390 strain) were treated with Ply187AN-KSH3b for 1 h followed by CFU enumeration on TSA plates. Statistical analysis was performed using unpaired student's t test (*, p<0.05; **, p<0.005; ***, p<0.0005).
The bacterial burden in both chimeric Ply187AN-KSH3b- and vehicle-treated eyes was estimated using a bacterial plate count method. At the desired time point, the eyes were enucleated and homogenized in sterile PBS by stainless steel beads using Tissue lyser (Qiagen, Valencia, Calif.). […] The results were expressed as the mean number of CFU/eye ±SEM.

B1: Ply187AN-KSH3b: staphylococcal peptidoglycan hydrolase fusion protein: endopeptidase domain of prophage endolysin Ply187 plus SH3b cell wall-binding domain of phage K endolysin LysK (SEQ ID NO:1) (protein)
chain: MALPKTGKPTAKQVVDWAINLIGSGVDVDGYYGRQCWDLPNYIFNRYWNFKTPGNARDMAWYRYPEGFKVFRNTSDFVPKPGDIAVWTGGNYNWNTWGHTGIVVGPSTKSYFYSVDQNWNNSNSYVGSPAAKIKHSYFGVTHFVRPAYKAEPKPTPPLESTPATRPVTGSWKKNQYGTWYKPENATFVNGNQPIVTRIGSPFLNAPVGGNLPAGATIVYDEVCIQAGHIWIGYNAYNGNRVYCPVRTCQGVPPNQIPGVAWGVFKVEHHHHHH
modifications: Chemically Synthesized Fusion Protein
staphylococci
  antimicrobial effectiveness relative to Ply187, Ply187AN and LysK: more effective antimicrobial than the full-length Ply187 or the truncated Ply187 (Ply187AN)
[1]
  MIC: 4.16 ± 1.04 µg/mL
[2]
  MIC: 4.16 ± 1.04 µg/mL
[3]
  retinal cell death in vitro: does not cause retinal cell death
[4]
  biofilm disruption by Live/Dead staining: successfully disrupted biofilms
[4]; all strains tested
  CFU counts of biofilm associated bacteria: almost zero
S. aureus RN6390; treatment 6 h post infection
  bacterial burden recovered: 3.6×10^3 CFU/eye
S. aureus RN6390; treatment 12 h post infection
  bacterial burden recovered: 2.9×10^4 CFU/eye
